T1: human CEACAM6, extracellular (mature form), R&D Systems 3934-CM (human, UniProt P40199 35-320)
T1 construct: used biotinylated in some assays; also called TPP-1436; Recombinant human CEACAM6
T1 sequence: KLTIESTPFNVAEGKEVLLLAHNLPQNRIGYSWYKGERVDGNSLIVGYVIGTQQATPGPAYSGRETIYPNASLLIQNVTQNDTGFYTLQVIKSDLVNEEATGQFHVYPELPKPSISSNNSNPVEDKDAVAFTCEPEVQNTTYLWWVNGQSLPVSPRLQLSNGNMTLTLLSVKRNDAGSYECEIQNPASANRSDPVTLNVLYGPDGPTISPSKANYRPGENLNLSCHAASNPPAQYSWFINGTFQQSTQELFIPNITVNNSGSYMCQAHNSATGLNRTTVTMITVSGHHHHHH

T2: human CEACAM5, extracellular (mature form), R&D Systems 4128-CM (human, UniProt P06731 35-685)
T2 construct: used biotinylated in some assays; also called TPP-1438; hC5
T2 sequence: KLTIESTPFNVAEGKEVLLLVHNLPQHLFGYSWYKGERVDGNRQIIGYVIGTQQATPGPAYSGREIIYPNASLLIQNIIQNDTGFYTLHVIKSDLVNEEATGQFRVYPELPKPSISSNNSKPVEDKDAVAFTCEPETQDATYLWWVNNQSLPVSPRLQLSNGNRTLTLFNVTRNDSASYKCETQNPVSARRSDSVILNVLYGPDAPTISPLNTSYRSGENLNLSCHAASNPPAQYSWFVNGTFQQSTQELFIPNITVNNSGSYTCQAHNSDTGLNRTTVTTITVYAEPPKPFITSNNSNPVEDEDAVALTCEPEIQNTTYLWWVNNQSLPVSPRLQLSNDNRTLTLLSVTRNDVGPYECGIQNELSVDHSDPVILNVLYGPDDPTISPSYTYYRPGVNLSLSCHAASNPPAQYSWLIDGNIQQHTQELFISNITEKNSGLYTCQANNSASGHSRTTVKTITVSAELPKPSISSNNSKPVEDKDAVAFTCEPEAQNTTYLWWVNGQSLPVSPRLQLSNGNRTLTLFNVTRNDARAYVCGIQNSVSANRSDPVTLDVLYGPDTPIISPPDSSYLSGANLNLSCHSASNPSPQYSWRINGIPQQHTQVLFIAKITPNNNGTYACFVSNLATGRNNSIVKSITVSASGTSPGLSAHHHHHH

T3: Macaca fascicularis CEACAM6, extracellular (mature form), obtained by Factor Xa cleavage of TPP-2443 (Macaca fascicularis)
T3 construct: used biotinylated in some assays; also called APP-319; Cynomolgus CEACAM6
T3 chain: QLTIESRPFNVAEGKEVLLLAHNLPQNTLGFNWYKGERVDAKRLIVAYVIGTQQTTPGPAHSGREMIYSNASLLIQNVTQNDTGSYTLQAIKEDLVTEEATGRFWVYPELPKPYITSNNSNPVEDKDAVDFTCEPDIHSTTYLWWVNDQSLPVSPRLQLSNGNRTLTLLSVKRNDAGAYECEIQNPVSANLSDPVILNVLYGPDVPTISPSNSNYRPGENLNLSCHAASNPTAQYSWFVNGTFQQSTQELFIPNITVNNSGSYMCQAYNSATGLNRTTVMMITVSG

T4: human CEACAM3, extracellular (mature form), Sino Biological Inc. 11933-H08H (human, UniProt P40198 35-155)
T4 construct: used biotinylated in some assays; also called TPP-2755
T4 sequence: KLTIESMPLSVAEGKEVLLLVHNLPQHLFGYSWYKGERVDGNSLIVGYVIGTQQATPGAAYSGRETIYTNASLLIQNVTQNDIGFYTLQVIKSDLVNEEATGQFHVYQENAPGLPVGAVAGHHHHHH


Tests used:
Assay in all cases: SPR, antibody captured, antigen as analyte
[1] = biological target: T1, human CEACAM6, extracellular (mature …)
Method: (§1) Surface plasmon resonance (SPR) experiments for quantitative binding analyses were performed either using a Biacore T100, Biacore T200 or a Biacore 4000 instrument (GE Healthcare Biacore, Inc.) equipped with Series S Sensor Chips CM5 (GE Healthcare Biacore, Inc.). Binding assays were carried out at 25° C. with assay buffer HBS-EP+(10 mM HEPES pH 7.4, 150 mM NaCl, 3 mM EDTA, 0.05% Surfactant P20). Antibodies were captured with an anti-hIgG capture antibody covalently immobilized to the chip surface via amine coupling chemistry. Reagents for amine coupling (1-ethyl-3-(3-dimethylaminopropyl) carbodiimide hydrochloride (EDC), N-hydroxysuccinimide (NHS), ethanolamine-HCl pH 8.5) were used from the Amine Coupling Kit (GE Healthcare, product code BR-1000-50). Anti-hIgG, anti-mIgG capture antibodies and immobilization buffer (10 mM sodium acetate pH 5.0) were used from the Human Antibody Capture Kit (GE Healthcare, BR-1008-39) and the Mouse Antibody Capture Kit (GE Healthcare, BR-1008-38), respectively. The sensor chip surface was activated with a freshly prepared solution of 0.2 M EDC and 0.05 M NHS passed over the chip surface for 420 s at a flow rate of 10 μl/min, followed by an injection of anti-hIgG or anti-mIgG capture antibody (dissolved to 25 μg/ml in immobilization buffer) for 180 s at a flow rate of […]. Excess of activated groups were blocked with a 1 molar solution of ethanolamine injected at a flow rate of 10 μl/min for 420 s.
(§2) CEACAM antigens were used as analyte to determine KD values. Antibodies were captured for 20 s at a flow rate of 10 μl/min prior to each analyte injection.
(§3) Obtained sensorgrams were double-referenced, i.e. in-line reference cell correction followed by buffer sample subtraction.

[2] = biological target: T2, human CEACAM5, extracellular (mature …)
Method: as §1, §2, §3

[3] = biological target: T3, Macaca fascicularis CEACAM6, …
Method: as §1, §2, §3

[4] = biological target: T4, human CEACAM3, extracellular (mature …)
Method: as §1, §2, §3

Binder	Kd [1] [nM]	binding result [2]	Kd [3] [nM]	binding result [4]
TPP-3821 (antibody, human IgG2, kappa, V domains shown, humanized from TPP-3187, human IgG2; also called 3187HU2-hIgG2Kappa) VH: QVTLRESGPALVKPTQTLTLTCTFSGFSLSTYGIGVGWIRQPPGKALEWLAHIWWNDNKYYSTSLKTRLTISKDTSKNQVVLTMTNMDPVDTATYYCARISLPYFDYWGQGTLVTVSS VL: DIQLTQSPSFLSASVGDRVTITCKASQNVGTAVAWYQQKPGKAPKLLIYSASNRYTGVPSRFSGSGSGTEFTLTISSLQPEDFATYYCQQYNNYPLTFGGGTKVEIKR	24	no binding (tested: 200 nM)	49	no binding (tested: 200 nM)
TPP-3310 (antibody, human IgG2, kappa, humanized from TPP-2971, human IgG2; also called TPP-2971HU1-hIgG2Kappa) heavy: QVTLRESGPALVKPTQTLTLTCTFSGFSLSTYGIGVGWIRQPPGKALEWLAHIWWNDNKYYSTSLKTRLTISKDTSKNQVVLTMTNMDPVDTATYYCARISLPYFDYWGQGTTLTVSSASTKGPSVFPLAPCSRSTSESTAALGCLVKDYFPEPVTVSWNSGALTSGVHTFPAVLQSSGLYSLSSVVTVPSSNFGTQTYTCNVDHKPSNTKVDKTVERKCCVECPPCPAPPVAGPSVFLFPPKPKDTLMISRTPEVTCVVVDVSHEDPEVQFNWYVDGVEVHNAKTKPREEQFNSTFRVVSVLTVVHQDWLNGKEYKCKVSNKGLPAPIEKTISKTKGQPREPQVYTLPPSREEMTKNQVSLTCLVKGFYPSDIAVEWESNGQPENNYKTTPPMLDSDGSFFLYSKLTVDKSRWQQGNVFSCSVMHEALHNHYTQKSLSLSPG light: DIQLTQSPSFLSASVGDRVTITCKASQNVGTAVAWYQQKPGKAPKLLIYSASNRYTGVPSRFSGSGSGTEFTLTISSLQPEDFATYYCQQYSSYPLTFGGGTKVEIKRTVAAPSVFIFPPSDEQLKSGTASVVCLLNNFYPREAKVQWKVDNALQSGNSQESVTEQDSKDSTYSLSSTLTLSKADYEKHKVYACEVTHQGLSSPVTKSFNRGEC	13	no binding (tested: 200 nM)	31	no binding (tested: 200 nM)
TPP-3820 (antibody, human IgG2, kappa, V domains shown, humanized from TPP-3187, human IgG2; also called 3187HU1-hIgG2Kappa) VH: QVTLRESGPALVKPTQTLTLTCTFSGFSLTTYGIGVGWIRQPPGKGLEWLAHIWWNDNKYYSTSLKTRLTISKDTSKNQVVLTMTNMDPVDTATYYCARISLPYFDYWGQGTLVTVSS VL: DIQLTQSPSFLSASVGDRVTITCKASQNVGTAVAWYQQKPGKAPKLLIYSASNRYTGVPSRFSGSGSGTEFTLTISSLQPEDFATYYCQQYNNYPLTFGGGTKVEIKR	27	no binding (tested: 200 nM)	54	no binding (tested: 200 nM)
TPP-3705 (antibody, human IgG2, kappa, V domains shown, also called 090E-M007-A09-Mat1-hIgG2-hIgG2Kappa) VH: EVQLVESGGGLVQPGGSLRLSCAASGFTFSLYQMHWVRQAPGKGLEWVSWISFSGGNTGYADSVKGRFTISRDNSKNTLYLQMNSLRAEDTAVYYCARATGYSSPWYLDPWGQGTLVTVSS VL: DIQMTQSPSSLSASVGDRVTITCQASHEIDNYLNWYQQKPGKAPKLLIYDAYWLKTGVPSRFSGSGSGTDFTLTISSLQPEDIATYYCQGYDDLSVTFGGGTKVDIKR	28	no binding (tested: 200 nM)	32	
TPP-3707 (antibody, human IgG2, kappa, V domains shown, also called 090E-M007-A09-Mat2-hIgG2-hIgG2Kappa) VH: EVQLVESGGGLVQPGGSLRLSCAASGFTFSLYQMHWVRQAPGKGLEWVSWISFSGGNTGYADSVKGRFTISRDNSKNTLYLQMNSLRAEDTAVYYCARATGYSSPWYLDPWGQGTLVTVSS VL: DIQMTQSPSSLSASVGDRVTITCQASHEIDNYLNWYQQKPGKAPKLLIYDAYWSKTGVPSRFSGSGSGTDFTLTISSLQPEDIATYYCQGYDDLSVTFGGGTKVDIKR	28	no binding (tested: 200 nM)	32	
TPP-2971 (antibody, mouse IgG1, V domains shown, murine hybridoma antibody, mouse IgG1; also called 792.15H12C9) VH: QVTLKESGPGILQPSQTLSLTCSFSGFSLSTYGIGVGWIRQPSGKDLEWLAHIWWNDNKYYNTALKSRLTISKDTSNNQVFLKIASVDTADTATYYCARISLPYFDYWGQGTTLTVSS VL: DIVMTQSQKFMSTSVGDRVSITCKASQNVGTAVAWYQQKPGQSPKLLIYSASNRYTGVPDRFTGSGSGTDFTLTISNMQSEDLADYFCQQYSSYPLTFGAGTKLELK	61	no binding (tested: 200 nM)	25	no binding (tested: 200 nM)
TPP-3187 (antibody, mouse IgG1, V domains shown, murine hybridoma antibody, mouse IgG1; also called 792.15C4F4) VH: QVTLKESGPGILQPSQTLSLTCSFSGFSLTTYGIGVGWIRQPSGKGLEWLAHIWWNDNKYYNTALKSRLTISKDTSNNQVFLKIASVDTADTATYYCARISLPYFDYWGQGTTLTVSS VL: DIVMTQSQKFMSTSVGDRVSITCKASQNVGTAVAWYQQKPGQSPKLLIYSASNRYTGVPDRFTGSGSGTDFTLTISNMQSEDLADYFCQQYNNYPLTFGAGTKLELK	68	no binding (tested: 200 nM)		no binding (tested: 200 nM)
TPP-3714 (antibody, human IgG2, kappa, humanized from TPP-2971, human IgG2; also called TPP-2971HU2-hIgG2Kappa) heavy: QVTLRESGPALVKPTQTLTLTCTFSGFSLSTYGIGVGWIRQPPGKALEWLAHIWWNDNKYYSTSLKTRLTISKDTSKNQVVLTMTNMDPVDTATYYCARISLPYFDYWGQGTLVTVSSASTKGPSVFPLAPCSRSTSESTAALGCLVKDYFPEPVTVSWNSGALTSGVHTFPAVLQSSGLYSLSSVVTVPSSNFGTQTYTCNVDHKPSNTKVDKTVERKCCVECPPCPAPPVAGPSVFLFPPKPKDTLMISRTPEVTCVVVDVSHEDPEVQFNWYVDGVEVHNAKTKPREEQFNSTFRVVSVLTVVHQDWLNGKEYKCKVSNKGLPAPIEKTISKTKGQPREPQVYTLPPSREEMTKNQVSLTCLVKGFYPSDIAVEWESNGQPENNYKTTPPMLDSDGSFFLYSKLTVDKSRWQQGNVFSCSVMHEALHNHYTQKSLSLSPG light: DIQLTQSPSFLSASVGDRVTITCKASQNVGTAVAWYQQKPGKAPKLLIYSASNRYTGVPSRFSGSGSGTEFTLTISSLQPEDFATYYCQQYSSYPLTFGGGTKVEIKRTVAAPSVFIFPPSDEQLKSGTASVVCLLNNFYPREAKVQWKVDNALQSGNSQESVTEQDSKDSTYSLSSTLTLSKADYEKHKVYACEVTHQGLSSPVTKSFNRGEC	13	no binding (tested: 200 nM)	27	no binding (tested: 200 nM)
